Assay results reported in patent publication US20140087995A1 (published 2014).
Numbered stars: 1 amine (or outer) side, 2 acyl side, 3 side chain; on linkers, the order of the positions; unused ones are H or OH. Bridge positions count the residues as written; N and C are the ends. Side chains are listed from the residue outwards. Ends that are not written are not given here. * marks the point of attachment. C20 diacid = O=C(O)CCCCCCCCCCCCCCCCCCC(=O)*; γGlu = O=C(O)[C@H](CCC(=O)[*:2])N[*:1]; AEEA = NCCOCCOCC(=O)O

T1: human calcitonin receptor (human, UniProt P30988 25-474)
T1 construct: whole, on cells; Assayed as cell membranes of BHK tk'ts 13 cells stably transfected with the human calcitonin receptor (Assay VII); also called hCTR; hCT
T1 sequence (looked up): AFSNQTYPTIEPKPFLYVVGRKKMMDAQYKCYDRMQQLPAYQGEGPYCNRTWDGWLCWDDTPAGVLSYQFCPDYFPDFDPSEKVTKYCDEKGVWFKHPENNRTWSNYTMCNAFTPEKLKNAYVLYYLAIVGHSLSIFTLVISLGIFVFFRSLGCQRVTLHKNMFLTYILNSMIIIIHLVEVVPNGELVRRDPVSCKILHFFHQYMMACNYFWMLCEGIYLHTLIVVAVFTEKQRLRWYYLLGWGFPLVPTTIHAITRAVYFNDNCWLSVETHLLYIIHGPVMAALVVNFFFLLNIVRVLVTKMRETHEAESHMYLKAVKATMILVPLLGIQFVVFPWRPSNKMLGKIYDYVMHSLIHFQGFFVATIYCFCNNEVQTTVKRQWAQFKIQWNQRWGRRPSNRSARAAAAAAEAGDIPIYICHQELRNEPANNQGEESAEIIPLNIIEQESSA


What was measured:
[1] = biological target: T1, human calcitonin receptor; assay: SPA competition vs 125I-calcitonin, membranes of BHK cells with human calcitonin receptor (Assay VII)
Summary of the method: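 BHK hCTR membranes 35 ng/μL + SPA beads 0.05 mg/well; buffer 50 mM Hepes pH 7.4, 1 mM CaCl2, 5 mM MgCl₂, 0.1% OA, 0.02% Tween20. 120 min, 25° C., shaking. Scintillation count; IC50 by one-site binding competition.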

[2] = biological target: T1, human calcitonin receptor; assay: IC50 at hCTR divided by IC50 at hAmylin-R (SPA competition assays V and VII)
Summary of the method: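 Competition binding by SPA with cell membranes (35 ng/μL) and SPA beads in 50 mM Hepes pH 7.4 with 1 mM CaCl2, 5 mM MgCl2, 0.1% OA and 0.02% Tween20. Incubated 120 min at 25 °C with shaking, then counted.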

IC50 [1]	Ratio hCT/hAmylin binding [2]	Binder
9.63 nM	109	K([AEEA-γGlu-C20 diacid])CNTATCATQRLANFLRHSSPNFGAIPSSTNVGPHTY-NH2 (disulfide 2-7; N-terminus assumed; SMILES CC[C@H](C)[C@H](NC(=O)[C@H](C)NC(=O)CNC(=O)[C@H](Cc1ccccc1)NC(=O)[C@H](CC(N)=O)NC(=O)[C@@H]1CCCN1C(=O)[C@H](CO)NC(=O)[C@H](CO)NC(=O)[C@H](Cc1c[nH]cn1)NC(=O)[C@H](CCCNC(=N)N)NC(=O)[C@H](CC(C)C)NC(=O)[C@H](Cc1ccccc1)NC(=O)[C@H](CC(N)=O)NC(=O)[C@H](C)NC(=O)[C@H](CC(C)C)NC(=O)[C@H](CCCNC(=N)N)NC(=O)[C@H](CCC(N)=O)NC(=O)[C@@H](NC(=O)[C@H](C)NC(=O)[C@@H]1CSSC[C@H](NC(=O)[C@@H](N)CCCCNC(=O)COCCOCCNC(=O)CC[C@H](NC(=O)CCCCCCCCCCCCCCCCCCC(=O)O)C(=O)O)C(=O)N[C@@H](CC(N)=O)C(=O)N[C@@H]([C@@H](C)O)C(=O)N[C@@H](C)C(=O)N[C@@H]([C@@H](C)O)C(=O)N1)[C@@H](C)O)C(=O)N1CCC[C@H]1C(=O)N[C@@H](CO)C(=O)N[C@@H](CO)C(=O)N[C@H](C(=O)N[C@@H](CC(N)=O)C(=O)N[C@H](C(=O)NCC(=O)N1CCC[C@H]1C(=O)N[C@@H](Cc1c[nH]cn1)C(=O)N[C@H](C(=O)N[C@@H](Cc1ccc(O)cc1)C(N)=O)[C@@H](C)O)C(C)C)[C@@H](C)O, also called compound 58)
1.38 nM	36	K([AEEA-γGlu-C20 diacid])CNTATCATQRLANFLRHSSPNFGAIPSSTNVGPNTY-NH2 (disulfide 2-7; N-terminus assumed; SMILES CC[C@H](C)[C@H](NC(=O)[C@H](C)NC(=O)CNC(=O)[C@H](Cc1ccccc1)NC(=O)[C@H](CC(N)=O)NC(=O)[C@@H]1CCCN1C(=O)[C@H](CO)NC(=O)[C@H](CO)NC(=O)[C@H](Cc1c[nH]cn1)NC(=O)[C@H](CCCNC(=N)N)NC(=O)[C@H](CC(C)C)NC(=O)[C@H](Cc1ccccc1)NC(=O)[C@H](CC(N)=O)NC(=O)[C@H](C)NC(=O)[C@H](CC(C)C)NC(=O)[C@H](CCCNC(=N)N)NC(=O)[C@H](CCC(N)=O)NC(=O)[C@@H](NC(=O)[C@H](C)NC(=O)[C@@H]1CSSC[C@H](NC(=O)[C@@H](N)CCCCNC(=O)COCCOCCNC(=O)CC[C@H](NC(=O)CCCCCCCCCCCCCCCCCCC(=O)O)C(=O)O)C(=O)N[C@@H](CC(N)=O)C(=O)N[C@@H]([C@@H](C)O)C(=O)N[C@@H](C)C(=O)N[C@@H]([C@@H](C)O)C(=O)N1)[C@@H](C)O)C(=O)N1CCC[C@H]1C(=O)N[C@@H](CO)C(=O)N[C@@H](CO)C(=O)N[C@H](C(=O)N[C@@H](CC(N)=O)C(=O)N[C@H](C(=O)NCC(=O)N1CCC[C@H]1C(=O)N[C@@H](CC(N)=O)C(=O)N[C@H](C(=O)N[C@@H](Cc1ccc(O)cc1)C(N)=O)[C@@H](C)O)C(C)C)[C@@H](C)O, also called compound 50)
